Laboratory results as given in publication doi:10.1101/2025.10.16.682774 (bioRxiv, 2025).

Target: T1, flag-tagged p115 head domain (1-655) (human, UniProt O60763 1-655)
T1 sequence (looked up): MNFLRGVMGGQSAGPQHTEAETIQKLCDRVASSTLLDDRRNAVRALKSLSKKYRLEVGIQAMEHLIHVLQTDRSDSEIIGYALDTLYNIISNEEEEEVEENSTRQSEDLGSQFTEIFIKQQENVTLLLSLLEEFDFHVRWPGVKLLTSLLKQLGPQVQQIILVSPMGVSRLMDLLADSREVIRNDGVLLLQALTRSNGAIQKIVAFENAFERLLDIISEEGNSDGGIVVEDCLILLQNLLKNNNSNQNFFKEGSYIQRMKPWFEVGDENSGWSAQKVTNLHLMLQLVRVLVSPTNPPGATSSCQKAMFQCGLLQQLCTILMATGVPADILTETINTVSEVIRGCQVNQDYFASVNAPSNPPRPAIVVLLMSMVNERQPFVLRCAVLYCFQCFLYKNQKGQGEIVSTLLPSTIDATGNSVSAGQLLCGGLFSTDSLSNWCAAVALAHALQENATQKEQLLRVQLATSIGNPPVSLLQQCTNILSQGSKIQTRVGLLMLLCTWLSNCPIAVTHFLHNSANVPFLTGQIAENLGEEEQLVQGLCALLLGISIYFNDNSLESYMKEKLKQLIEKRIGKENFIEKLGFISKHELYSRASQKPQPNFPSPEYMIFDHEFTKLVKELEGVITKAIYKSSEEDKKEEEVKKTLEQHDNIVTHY
Test: pull-down

binding result: binds
B1: Sec16A(650-776)-GFP (domain or fragment, human, UniProt O15027 650-776, looked up)
chain: ALPDASPGNLEQPPDNMETLCAPQVCPLPLNSTTEAVHMLPHAGAPPLDTVYPAPEKRPSARTQGPVKCESPATTLWAQSELPDFGGNVLLAPAAPALYVCAKPQPPVVQPPEEAMSGQQSRNPSSA
